Measured values taken from paper PMC8015787.

Substrate: O=CCO
Test: O2 consumption
Format: biochemical, Escherichia coli
Conditions: thiamin diphosphate (ThDP), Mg2+ active site; donor (and acceptor) substrate

B1: 1-deoxy-D-xylulose 5-phosphate synthase (DXPS) (Escherichia coli K-12) (protein)
chain: SFDIAKYPTLALVDSTQELRLLPKESLPKLCDELRRYLLDSVSRSSGHFASGLGTVELTVALHYVYNTPFDQLIWDVGHQAYPHKILTGRRDKIGTIRQKGGLHPFPWRGESEYDVLSVGHSSTSISAGIGIAVAAEKEGKNRRTVCVIGDGAITAGMAFEAMNHAGDIRPDMLVILNDNEMSISENVGALNNHLAQLLSGKLYSSLREGGKKVFSGVPPIKELLKRTEEHIKGMVVPGTLFEELGFNYIGPVDGHDVLGLITTLKNMRDLKGPQFLHIMTKKGRGYEPAEKDPITFHAVPKFDPSSGCLPKSSGGLPSYSKIFGDWLCETAAKDNKLMAITPAMREGSGMVEFSRKFPDRYFDVAIAEQHAVTFAAGLAIGGYKPIVAIYSTFLQRAYDQVLHDVAIQKLPVLFAIDRAGIVGADGQTHQGAFDLSYLRCIPEMVIMTPSDENECRQMLYTGYHYNDGPSAVRYPRGNAVGVELTPLEKLPIGKGIVKRRGEKLAILNFGTLMPEAAKVAESLNATLVDMRFVKPLDEALILEMAASHEALVTVEENAIMGGAGSGVNEVLMAHRKPVPVLNIGLPDFFIPQGTQEEMRAELGLDAAGMEAKIKAWLA
**Q.** For B1, which Km is on record?
**A.** 920 ± 120 µM
